# Results taken from patent US20060172941A1 (published 2006).
# B1: ST100,032 (peptide)
# peptide: YDGRGDSVVYGLKKKAARGRRAARGRR
# B2: ST100,033 (peptide)
# peptide: PYAGRGDSVVYGLGGGPGAARGRRAARGRR
# Target: VEGF receptor on endothelial cells
# Assay: inhibition of radiolabeled VEGF binding to its receptor on endothelial cells; peptide concentration varied
# VEGF receptor on endothelial cells, sequence (chain, as listed by the source): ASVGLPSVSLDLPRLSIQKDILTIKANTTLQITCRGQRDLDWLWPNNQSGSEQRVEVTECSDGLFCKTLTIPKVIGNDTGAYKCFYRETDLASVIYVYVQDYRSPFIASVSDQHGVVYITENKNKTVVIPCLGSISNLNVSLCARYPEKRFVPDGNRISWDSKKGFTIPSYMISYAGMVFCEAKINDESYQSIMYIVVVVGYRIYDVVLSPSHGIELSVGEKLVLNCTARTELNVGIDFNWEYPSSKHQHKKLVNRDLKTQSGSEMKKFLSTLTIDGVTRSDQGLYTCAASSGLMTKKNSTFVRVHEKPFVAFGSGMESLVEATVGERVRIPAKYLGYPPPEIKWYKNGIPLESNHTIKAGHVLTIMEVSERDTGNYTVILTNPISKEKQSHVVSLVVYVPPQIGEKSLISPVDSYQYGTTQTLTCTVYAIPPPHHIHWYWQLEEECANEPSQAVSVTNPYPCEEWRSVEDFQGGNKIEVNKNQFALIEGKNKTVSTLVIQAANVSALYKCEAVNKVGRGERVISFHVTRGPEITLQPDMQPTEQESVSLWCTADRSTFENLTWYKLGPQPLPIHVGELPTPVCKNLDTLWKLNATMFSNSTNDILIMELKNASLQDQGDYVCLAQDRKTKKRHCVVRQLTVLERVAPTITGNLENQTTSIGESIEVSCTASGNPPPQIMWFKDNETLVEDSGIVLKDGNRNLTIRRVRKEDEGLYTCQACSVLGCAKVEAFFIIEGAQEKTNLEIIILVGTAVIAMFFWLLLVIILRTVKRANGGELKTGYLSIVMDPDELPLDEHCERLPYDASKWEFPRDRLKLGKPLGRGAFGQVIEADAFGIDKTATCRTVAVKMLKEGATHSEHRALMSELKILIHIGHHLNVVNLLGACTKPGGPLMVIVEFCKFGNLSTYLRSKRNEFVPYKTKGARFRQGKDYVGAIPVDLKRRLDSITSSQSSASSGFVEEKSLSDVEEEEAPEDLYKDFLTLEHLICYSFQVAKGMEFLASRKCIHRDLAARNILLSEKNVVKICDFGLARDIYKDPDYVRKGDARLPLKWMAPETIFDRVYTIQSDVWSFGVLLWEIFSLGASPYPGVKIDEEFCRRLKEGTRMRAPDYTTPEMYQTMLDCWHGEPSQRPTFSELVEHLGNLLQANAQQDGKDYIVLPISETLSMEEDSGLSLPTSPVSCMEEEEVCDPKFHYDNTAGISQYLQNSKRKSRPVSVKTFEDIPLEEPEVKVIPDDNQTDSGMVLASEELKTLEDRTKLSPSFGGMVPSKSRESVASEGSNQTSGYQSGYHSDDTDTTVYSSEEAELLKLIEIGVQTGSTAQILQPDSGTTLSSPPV
row,Binder,IC50 [nM]
1,B1,430
2,B2,1100
